Measured values as given in patent publication US20230279138A1 (CHIA TAI TIANQING PHARMACEUTICAL GROUP, published 2023).

T1: CD20 on Raji cells (CD20+/CD3- cells) (human, UniProt P11836 1-297)
T1 construct: whole, on cells; Raji, Ramos and NAMALWA in the killing assays; also called Ramos; NAMALWA
T1 sequence (looked up): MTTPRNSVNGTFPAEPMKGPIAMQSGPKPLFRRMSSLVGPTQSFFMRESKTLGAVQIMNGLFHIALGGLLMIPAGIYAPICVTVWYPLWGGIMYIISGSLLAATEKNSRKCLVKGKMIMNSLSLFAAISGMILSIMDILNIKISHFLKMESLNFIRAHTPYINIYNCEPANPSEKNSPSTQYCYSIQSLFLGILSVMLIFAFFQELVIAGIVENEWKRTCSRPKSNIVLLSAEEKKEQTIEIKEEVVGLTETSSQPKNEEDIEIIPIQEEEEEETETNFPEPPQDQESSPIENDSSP


Assays:
[1] = target: T1, CD20 on Raji cells (CD20+/CD3- cells); assay: flow cytometry on Raji cells (CD20+/CD3-)
Protocol: (§1) After incubation, the cells were washed twice with cold 1% BSA/1×PBS. […] After being washed twice, the geometric mean fluorescence (MFI) of the stained cells was measured using a FACS Canto II […] (BD Biosciences). Wells containing no antibody or containing only fluorescent secondary antibody were used to establish background fluorescence. The EC50 values for cell binding were determined using GraphPad Prism 5 software (GraphPad Software, La Jolla, Calif.); each value was calculated by four-parameter non-linear regression analysis.

[2] = target: T2, CD3 on Jurkat cells (CD3+/CD20- cells) (human, UniProt P07766 23-207; P04234 22-171; P09693 23-182); assay: flow cytometry on Jurkat 2B8 cells (CD3+/CD20-)
T2 construct: whole, on cells; also called Jurkat 2B8
Protocol: as §1

T2 sequence (P07766 23-207, chain 1 of 3): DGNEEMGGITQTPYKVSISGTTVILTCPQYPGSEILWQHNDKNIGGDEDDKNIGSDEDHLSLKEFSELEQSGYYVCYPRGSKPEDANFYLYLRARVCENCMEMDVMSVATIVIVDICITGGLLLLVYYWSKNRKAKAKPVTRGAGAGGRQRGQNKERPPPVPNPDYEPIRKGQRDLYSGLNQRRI
T2 sequence (P04234 22-171, chain 2 of 3): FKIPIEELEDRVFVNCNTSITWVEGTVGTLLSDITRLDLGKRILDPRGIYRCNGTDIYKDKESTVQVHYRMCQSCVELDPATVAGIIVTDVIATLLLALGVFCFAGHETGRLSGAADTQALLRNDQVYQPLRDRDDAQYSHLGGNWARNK
T2 sequence (P09693 23-182, chain 3 of 3): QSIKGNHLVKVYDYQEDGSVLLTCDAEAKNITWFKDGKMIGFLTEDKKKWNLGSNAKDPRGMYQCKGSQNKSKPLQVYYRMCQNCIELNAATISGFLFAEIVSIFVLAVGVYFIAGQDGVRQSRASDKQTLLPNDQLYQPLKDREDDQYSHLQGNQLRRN

| EC50 [1] | TOP MFI [1] | EC50 [2] | TOP MFI [2] | Binder |
| --- | --- | --- | --- | --- |
| 1.3 nM | 55400 MFI | 26.6 nM | 536 MFI | W3278-U3T2.F18R-1.uIgG4.SP (bispecific antibody, Human IgG4 S228P, knobs-into-holes; also called W3278 BsAb; WBP3278 BsAb) heavy 1: EVQLVESGGGLVQPGRSLRLSCAASGFTFNDYAMHWVRQAPGKGLEWVSTISWNSGSIGYADSVKGRFTISRDNAKKSLYLQMNSLRAEDTALYYCAKDIQYGNYYYGMDVWGQGTTVTVSSASTKGPSVFPLAPCSRSTSESTAALGCLVKDYFPEPVTVSWNSGALTSGVHTFPAVLQSSGLYSLSSVVTVPSSSLGTKTYTCNVDHKPSNTKVDKRVGGGGSGGGGSQVQLVQSGAEVKKPGSSVKVSCKASGYSFTTYYIHWVRQAPGQGLEWMGWIFPGNDNIKYSEKFKGRVTITADKSTSTAYMELSSLRSEDTAVYYCAIDSVSIYYFDYWGQGTLVTVLEDLKNVFPPEVAVFEPSEAEISHTQKATLVCLATGFYPDHVELSWWVNGKEVHSGVCTDPQPLKEQPALQDSRYALSSRLRVSATFWQNPRNHFRCQVQFYGLSENDEWTQDRAKPVTQIVSAEAWGRYGPPCPPCPAPEFLGGPSVFLFPPKPKDTLMISRTPEVTCVVVDVSQEDPEVQFNWYVDGVEVHNAKTKPREEQFNSTYRVVSVLTVLHQDWLNGKEYKCKVSNKGLPSSIEKTISKAKGQPREPQVYTLPPCQEEMTKNQVSLWCLVKGFYPSDIAVEWESNGQPENNYKTTPPVLDSDGSFFLYSRLTVDKSRWQEGNVFSCSVMHEALHNHYTQKSLSLSLG heavy 2: EVQLVESGGGLVQPGRSLRLSCAASGFTFNDYAMHWVRQAPGKGLEWVSTISWNSGSIGYADSVKGRFTISRDNAKKSLYLQMNSLRAEDTALYYCAKDIQYGNYYYGMDVWGQGTTVTVSSASTKGPSVFPLAPCSRSTSESTAALGCLVKDYFPEPVTVSWNSGALTSGVHTFPAVLQSSGLYSLSSVVTVPSSSLGTKTYTCNVDHKPSNTKVDKRVESKYGPPCPPCPAPEFLGGPSVFLFPPKPKDTLMISRTPEVTCVVVDVSQEDPEVQFNWYVDGVEVHNAKTKPREEQFNSTYRVVSVLTVLHQDWLNGKEYKCKVSNKGLPSSIEKTISKAKGQPREPQVCTLPPSQEEMTKNQVSLSCAVKGFYPSDIAVEWESNGQPENNYKTTPPVLDSDGSFFLVSRLTVDKSRWQEGNVFSCSVMHEALHNHYTQKSLSLSLG light 1: not shown light 2: DIVMTQSPDSLAVSLGERATINCKSSQSLLNSRTRKNYLAWYQQKPGQPPKLLIYWASTRKSGVPDRFSGSGSGTDFTLTISSLQAEDVAVYYCTQSFILRTFGGGTKVEIKPDIQNPDPAVYQLRDSKSSDKSVCLFTDFDSQTQVSQSKDSDVYITDKCVLDMRSMDFKSNSAVAWSQKSDFACANAFQNSIIPEDTFFPSPESS |
| > 1000 nM | 55200 MFI | 58.9 nM | 6750 MFI | W3278-T3U2.F16-1.uIgG4.SP (bispecific antibody, Human IgG4 S228P, knobs-into-holes; also called W3278 BsAb; WBP3278 BsAb) heavy 1: QVQLVQSGAEVKKPGSSVKVSCKASGFAFTDYYIHWVRQAPGQGLEWMGWISPGNVNTKYNENFKGRVTITADKSTSTAYMELSSLRSEDTAVYYCARDGYSLYYFDYWGQGTLVTVLEDLKNVFPPEVAVFEPSEAEISHTQKATLVCLATGFYPDHVELSWWVNGKEVHSGVCTDPQPLKEQPALQDSRYALSSRLRVSATFWQNPRNHFRCQVQFYGLSENDEWTQDRAKPVTQIVSAEAWGRYGPPCPPCPAPEFLGGPSVFLFPPKPKDTLMISRTPEVTCVVVDVSQEDPEVQFNWYVDGVEVHNAKTKPREEQFNSTYRVVSVLTVLHQDWLNGKEYKCKVSNKGLPSSIEKTISKAKGQPREPQVYTLPPCQEEMTKNQVSLWCLVKGFYPSDIAVEWESNGQPENNYKTTPPVLDSDGSFFLYSRLTVDKSRWQEGNVFSCSVMHEALHNHYTQKSLSLSLG heavy 2: QVQLQQPGAELVKPGASVKMSCKASGYTFTSYNMHWVKQTPGRGLEWIGAIYPGNGDTSYNQKFKGKATLTADKSSSTAYMQLSSLTSEDSAVYYCARSTYYGGDWYFNVWGAGTTVTVSAASTKGPSVFPLAPCSRSTSESTAALGCLVKDYFPEPVTVSWNSGALTSGVHTFPAVLQSSGLYSLSSVVTVPSSSLGTKTYTCNVDHKPSNTKVDKRVGGGGSGGGGSQVQLQQPGAELVKPGASVKMSCKASGYTFTSYNMHWVKQTPGRGLEWIGAIYPGNGDTSYNQKFKGKATLTADKSSSTAYMQLSSLTSEDSAVYYCARSTYYGGDWYFNVWGAGTTVTVSAASTKGPSVFPLAPCSRSTSESTAALGCLVKDYFPEPVTVSWNSGALTSGVHTFPAVLQSSGLYSLSSVVTVPSSSLGTKTYTCNVDHKPSNTKVDKRVESKYGPPCPPCPAPEFLGGPSVFLFPPKPKDTLMISRTPEVTCVVVDVSQEDPEVQFNWYVDGVEVHNAKTKPREEQFNSTYRVVSVLTVLHQDWLNGKEYKCKVSNKGLPSSIEKTISKAKGQPREPQVCTLPPSQEEMTKNQVSLSCAVKGFYPSDIAVEWESNGQPENNYKTTPPVLDSDGSFFLVSRLTVDKSRWQEGNVFSCSVMHEALHNHYTQKSLSLSLG light 1: DIVMTQSPDSLAVSLGERATINCKSSQSLLNSRTRKNYLAWYQQKPGQPPKLLIYWASTRQSGVPDRFSGSGSGTDFTLTISSLQAEDVAVYYCTQSHTLRTFGGGTKVEIKPDIQNPDPAVYQLRDSKSSDKSVCLFTDFDSQTQVSQSKDSDVYITDKCVLDMRSMDFKSNSAVAWSQKSDFACANAFQNSIIPEDTFFPSPESS light 2: QIVLSQSPAILSASPGEKVTMTCRASSSVSYIHWFQQKPGSSPKPWIYATSNLASGVPVRFSGSGSGTSYSLTISRVEAEDAATYYCQQWTSNPPTFGGGTKLEIKRTVAAPSVFIFPPSDEQLKSGTASVVCLLNNFYPREAKVQWKVDNALQSGNSQESVTEQDSKDSTYSLSSTLTLSKADYEKHKVYACEVTHQGLSSPVTKSFNRGEC |
| 85.3 nM | 64900 MFI | 17.3 nM | 7360 MFI | W3278-T3U2.F17R-1.uIgG4.SP (bispecific antibody, also called W3278 BsAb; WBP3278 BsAb) heavy 1: QVQLVQSGAEVKKPGSSVKVSCKASGFAFTDYYIHWVRQAPGQGLEWMGWISPGNVNTKYNENFKGRVTITADKSTSTAYMELSSLRSEDTAVYYCARDGYSLYYFDYWGQGTLVTVLEDLKNVFPPEVAVFEPSEAEISHTQKATLVCLATGFYPDHVELSWWVNGKEVHSGVCTDPQPLKEQPALQDSRYALSSRLRVSATFWQNPRNHFRCQVQFYGLSENDEWTQDRAKPVTQIVSAEAWGRGGGGSGGGGSQVQLQQPGAELVKPGASVKMSCKASGYTFTSYNMHWVKQTPGRGLEWIGAIYPGNGDTSYNQKFKGKATLTADKSSSTAYMQLSSLTSEDSAVYYCARSTYYGGDWYFNVWGAGTTVTVSAASTKGPSVFPLAPCSRSTSESTAALGCLVKDYFPEPVTVSWNSGALTSGVHTFPAVLQSSGLYSLSSVVTVPSSSLGTKTYTCNVDHKPSNTKVDKRVESKYGPPCPPCPAPEFLGGPSVFLFPPKPKDTLMISRTPEVTCVVVDVSQEDPEVQFNWYVDGVEVHNAKTKPREEQFNSTYRVVSVLTVLHQDWLNGKEYKCKVSNKGLPSSIEKTISKAKGQPREPQVYTLPPCQEEMTKNQVSLWCLVKGFYPSDIAVEWESNGQPENNYKTTPPVLDSDGSFFLYSRLTVDKSRWQEGNVFSCSVMHEALHNHYTQKSLSLSLG heavy 2: QVQLQQPGAELVKPGASVKMSCKASGYTFTSYNMHWVKQTPGRGLEWIGAIYPGNGDTSYNQKFKGKATLTADKSSSTAYMQLSSLTSEDSAVYYCARSTYYGGDWYFNVWGAGTTVTVSAASTKGPSVFPLAPCSRSTSESTAALGCLVKDYFPEPVTVSWNSGALTSGVHTFPAVLQSSGLYSLSSVVTVPSSSLGTKTYTCNVDHKPSNTKVDKRVESKYGPPCPPCPAPEFLGGPSVFLFPPKPKDTLMISRTPEVTCVVVDVSQEDPEVQFNWYVDGVEVHNAKTKPREEQFNSTYRVVSVLTVLHQDWLNGKEYKCKVSNKGLPSSIEKTISKAKGQPREPQVCTLPPSQEEMTKNQVSLSCAVKGFYPSDIAVEWESNGQPENNYKTTPPVLDSDGSFFLVSRLTVDKSRWQEGNVFSCSVMHEALHNHYTQKSLSLSLG light 1: DIVMTQSPDSLAVSLGERATINCKSSQSLLNSRTRKNYLAWYQQKPGQPPKLLIYWASTRQSGVPDRFSGSGSGTDFTLTISSLQAEDVAVYYCTQSHTLRTFGGGTKVEIKPDIQNPDPAVYQLRDSKSSDKSVCLFTDFDSQTQVSQSKDSDVYITDKCVLDMRSMDFKSNSAVAWSQKSDFACANAFQNSIIPEDTFFPSPESS light 2: QIVLSQSPAILSASPGEKVTMTCRASSSVSYIHWFQQKPGSSPKPWIYATSNLASGVPVRFSGSGSGTSYSLTISRVEAEDAATYYCQQWTSNPPTFGGGTKLEIKRTVAAPSVFIFPPSDEQLKSGTASVVCLLNNFYPREAKVQWKVDNALQSGNSQESVTEQDSKDSTYSLSSTLTLSKADYEKHKVYACEVTHQGLSSPVTKSFNRGEC |
